Measured values: patent publication US20110294738A1, “PTHR1 RECEPTOR COMPOUNDS” (priority 2008, published 2011)
* marks the point of attachment. Palmitoyl = CCCCCCCCCCCCCCCC(=O)*

Molecular target: PTHR1 receptor
Sequence (P25961 whole entry): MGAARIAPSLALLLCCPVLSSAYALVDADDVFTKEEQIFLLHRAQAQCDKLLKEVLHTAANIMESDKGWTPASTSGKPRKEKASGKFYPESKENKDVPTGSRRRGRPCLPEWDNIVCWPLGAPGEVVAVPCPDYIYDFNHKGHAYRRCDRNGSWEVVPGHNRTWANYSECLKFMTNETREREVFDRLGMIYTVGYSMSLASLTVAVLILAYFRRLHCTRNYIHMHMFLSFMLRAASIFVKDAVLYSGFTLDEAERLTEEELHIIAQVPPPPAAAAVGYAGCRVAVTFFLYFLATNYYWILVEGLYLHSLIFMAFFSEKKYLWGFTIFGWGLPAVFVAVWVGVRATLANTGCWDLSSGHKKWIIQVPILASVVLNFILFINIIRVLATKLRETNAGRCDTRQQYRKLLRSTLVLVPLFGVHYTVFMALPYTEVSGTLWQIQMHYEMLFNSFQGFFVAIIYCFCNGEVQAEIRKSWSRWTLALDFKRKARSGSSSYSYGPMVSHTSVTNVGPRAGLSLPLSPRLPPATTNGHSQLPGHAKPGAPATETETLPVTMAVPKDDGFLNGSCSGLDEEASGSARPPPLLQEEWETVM

Row | Fold Shift of EC50 [fold] | Inhibition of Maximal Response | Binder
1 | 1.7 | 1.5% | Palmitoyl-RRLHSTRNYIHM-NH2 (SMILES CCCCCCCCCCCCCCCC(=O)N[C@@H](CCCNC(=N)N)C(=O)N[C@@H](CCCNC(=N)N)C(=O)N[C@@H](CC(C)C)C(=O)N[C@@H](Cc1c[nH]cn1)C(=O)N[C@@H](CO)C(=O)N[C@H](C(=O)N[C@@H](CCCNC(=N)N)C(=O)N[C@@H](CC(N)=O)C(=O)N[C@@H](Cc1ccc(O)cc1)C(=O)N[C@H](C(=O)N[C@@H](Cc1c[nH]cn1)C(=O)N[C@@H](CCSC)C(N)=O)[C@@H](C)CC)[C@@H](C)O) [Compound 15]
2 | 0.9 | 17.7% | Palmitoyl-GSEKKYLWGFTVF-NH2 (SMILES CCCCCCCCCCCCCCCC(=O)NCC(=O)N[C@@H](CO)C(=O)N[C@@H](CCC(=O)O)C(=O)N[C@@H](CCCCN)C(=O)N[C@@H](CCCCN)C(=O)N[C@@H](Cc1ccc(O)cc1)C(=O)N[C@@H](CC(C)C)C(=O)N[C@@H](Cc1c[nH]c2ccccc12)C(=O)NCC(=O)N[C@@H](Cc1ccccc1)C(=O)N[C@H](C(=O)N[C@H](C(=O)N[C@@H](Cc1ccccc1)C(N)=O)C(C)C)[C@@H](C)O) [Compound 41]
3 | 0.9 | -74.2% | Palmitoyl-LAYFRRLHSTR-NH2 (SMILES CCCCCCCCCCCCCCCC(=O)N[C@@H](CC(C)C)C(=O)N[C@@H](C)C(=O)N[C@@H](Cc1ccc(O)cc1)C(=O)N[C@@H](Cc1ccccc1)C(=O)N[C@@H](CCCNC(=N)N)C(=O)N[C@@H](CCCNC(=N)N)C(=O)N[C@@H](CC(C)C)C(=O)N[C@@H](Cc1c[nH]cn1)C(=O)N[C@@H](CO)C(=O)N[C@H](C(=O)N[C@@H](CCCNC(=N)N)C(N)=O)[C@@H](C)O) [Compound 4]
4 | 1.1 | 12.6% | Palmitoyl-RVLATKLRETNAGR-NH2 (SMILES CCCCCCCCCCCCCCCC(=O)N[C@@H](CCCNC(=N)N)C(=O)N[C@H](C(=O)N[C@@H](CC(C)C)C(=O)N[C@@H](C)C(=O)N[C@H](C(=O)N[C@@H](CCCCN)C(=O)N[C@@H](CC(C)C)C(=O)N[C@@H](CCCNC(=N)N)C(=O)N[C@@H](CCC(=O)O)C(=O)N[C@H](C(=O)N[C@@H](CC(N)=O)C(=O)N[C@@H](C)C(=O)NCC(=O)N[C@@H](CCCNC(=N)N)C(N)=O)[C@@H](C)O)[C@@H](C)O)C(C)C) [Compound 75]
5 | 1.9 | 22.2% | Palmitoyl-SGRVLATKLRETNAGR-NH2 (SMILES CCCCCCCCCCCCCCCC(=O)N[C@@H](CO)C(=O)NCC(=O)N[C@@H](CCCNC(=N)N)C(=O)N[C@H](C(=O)N[C@@H](CC(C)C)C(=O)N[C@@H](C)C(=O)N[C@H](C(=O)N[C@@H](CCCCN)C(=O)N[C@@H](CC(C)C)C(=O)N[C@@H](CCCNC(=N)N)C(=O)N[C@@H](CCC(=O)O)C(=O)N[C@H](C(=O)N[C@@H](CC(N)=O)C(=O)N[C@@H](C)C(=O)NCC(=O)N[C@@H](CCCNC(=N)N)C(N)=O)[C@@H](C)O)[C@@H](C)O)C(C)C) [Compound 74]
6 | 1.3 | 40.8% | Palmitoyl-GSEKKYLWGFT-NH2 (SMILES CCCCCCCCCCCCCCCC(=O)NCC(=O)N[C@@H](CO)C(=O)N[C@@H](CCC(=O)O)C(=O)N[C@@H](CCCCN)C(=O)N[C@@H](CCCCN)C(=O)N[C@@H](Cc1ccc(O)cc1)C(=O)N[C@@H](CC(C)C)C(=O)N[C@@H](Cc1c[nH]c2ccccc12)C(=O)NCC(=O)N[C@@H](Cc1ccccc1)C(=O)N[C@H](C(N)=O)[C@@H](C)O) [Compound 42]
7 | 2.8 | 39.4% | Palmitoyl-SGRRLHSTRNYIHMH-NH2 (SMILES CCCCCCCCCCCCCCCC(=O)N[C@@H](CO)C(=O)NCC(=O)N[C@@H](CCCNC(=N)N)C(=O)N[C@@H](CCCNC(=N)N)C(=O)N[C@@H](CC(C)C)C(=O)N[C@@H](Cc1c[nH]cn1)C(=O)N[C@@H](CO)C(=O)N[C@H](C(=O)N[C@@H](CCCNC(=N)N)C(=O)N[C@@H](CC(N)=O)C(=O)N[C@@H](Cc1ccc(O)cc1)C(=O)N[C@H](C(=O)N[C@@H](Cc1c[nH]cn1)C(=O)N[C@@H](CCSC)C(=O)N[C@@H](Cc1c[nH]cn1)C(N)=O)[C@@H](C)CC)[C@@H](C)O) [Compound 17]
8 | 0.8 | 32.3% | Palmitoyl-SGRVLATKLRETNA-NH2 (SMILES CCCCCCCCCCCCCCCC(=O)N[C@@H](CO)C(=O)NCC(=O)N[C@@H](CCCNC(=N)N)C(=O)N[C@H](C(=O)N[C@@H](CC(C)C)C(=O)N[C@@H](C)C(=O)N[C@H](C(=O)N[C@@H](CCCCN)C(=O)N[C@@H](CC(C)C)C(=O)N[C@@H](CCCNC(=N)N)C(=O)N[C@@H](CCC(=O)O)C(=O)N[C@H](C(=O)N[C@@H](CC(N)=O)C(=O)N[C@@H](C)C(N)=O)[C@@H](C)O)[C@@H](C)O)C(C)C) [Compound 73]
9 | 0.7 | 22.3% | Palmitoyl-SGRVLATKLRET-NH2 (SMILES CCCCCCCCCCCCCCCC(=O)N[C@@H](CO)C(=O)NCC(=O)N[C@@H](CCCNC(=N)N)C(=O)N[C@H](C(=O)N[C@@H](CC(C)C)C(=O)N[C@@H](C)C(=O)N[C@H](C(=O)N[C@@H](CCCCN)C(=O)N[C@@H](CC(C)C)C(=O)N[C@@H](CCCNC(=N)N)C(=O)N[C@@H](CCC(=O)O)C(=O)N[C@H](C(N)=O)[C@@H](C)O)[C@@H](C)O)C(C)C) [Compound 72]
10 | 2.45 | 0.0965 | Palmitoyl-RRLHSTRNYIHMHL-NH2 (SMILES CCCCCCCCCCCCCCCC(=O)N[C@@H](CCCNC(=N)N)C(=O)N[C@@H](CCCNC(=N)N)C(=O)N[C@@H](CC(C)C)C(=O)N[C@@H](Cc1c[nH]cn1)C(=O)N[C@@H](CO)C(=O)N[C@H](C(=O)N[C@@H](CCCNC(=N)N)C(=O)N[C@@H](CC(N)=O)C(=O)N[C@@H](Cc1ccc(O)cc1)C(=O)N[C@H](C(=O)N[C@@H](Cc1c[nH]cn1)C(=O)N[C@@H](CCSC)C(=O)N[C@@H](Cc1c[nH]cn1)C(=O)N[C@@H](CC(C)C)C(N)=O)[C@@H](C)CC)[C@@H](C)O) [Compound 16]
11 | 1.4 | 5.7% | Palmitoyl-GSEKKYLWG-NH2 (SMILES CCCCCCCCCCCCCCCC(=O)NCC(=O)N[C@@H](CO)C(=O)N[C@@H](CCC(=O)O)C(=O)N[C@@H](CCCCN)C(=O)N[C@@H](CCCCN)C(=O)N[C@@H](Cc1ccc(O)cc1)C(=O)N[C@@H](CC(C)C)C(=O)N[C@@H](Cc1c[nH]c2ccccc12)C(=O)NCC(N)=O) [Compound 43]
